For 4 substances, reduction of the binding capacity of the beads for p53 by the mass tag, signal-to-noise and signal-to-noise ratio results are on record in patent US20140235471A1.

Where two headings read alike, the source gives them in different places.

Experiment [1] has as its target cell-free expressed recombinant human p53 with N-terminal VSV-G epitope tag and C-terminal polyhisti (human) (UniProt P04637).
Experiment [2] has the same target. The experiment can be described thus: fluorescence imaging of p53 beads against blank beads, anti-VSV-Cy3 antibody.
Experiment [3] concerns the target cell-free expressed recombinant human KLHL12 with N-terminal VSV-G epitope tag and C-terminal polyhistidine and HSV epitope tags (human) (UniProt Q53G59).
UniProt Q53G59, sequence (Q53G59 other isoform, or with tags, fused parts or gaps limits assumed): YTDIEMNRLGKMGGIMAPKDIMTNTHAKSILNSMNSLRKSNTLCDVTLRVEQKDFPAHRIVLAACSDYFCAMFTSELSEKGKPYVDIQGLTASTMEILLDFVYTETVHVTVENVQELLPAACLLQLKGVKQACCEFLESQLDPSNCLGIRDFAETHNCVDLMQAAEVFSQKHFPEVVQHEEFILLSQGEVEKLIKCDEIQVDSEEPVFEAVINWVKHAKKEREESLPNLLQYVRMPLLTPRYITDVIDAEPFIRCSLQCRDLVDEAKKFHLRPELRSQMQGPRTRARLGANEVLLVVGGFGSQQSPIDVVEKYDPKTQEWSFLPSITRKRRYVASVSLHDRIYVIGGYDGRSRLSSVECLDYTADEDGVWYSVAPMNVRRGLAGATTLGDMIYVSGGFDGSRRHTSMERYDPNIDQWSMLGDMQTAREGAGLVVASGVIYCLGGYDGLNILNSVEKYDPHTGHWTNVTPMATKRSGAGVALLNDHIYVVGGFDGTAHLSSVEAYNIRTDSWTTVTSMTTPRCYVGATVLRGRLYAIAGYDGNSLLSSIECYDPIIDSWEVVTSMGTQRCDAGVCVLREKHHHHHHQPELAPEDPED
In experiment [4] the target is cell-free expressed recombinant human p53 with N-terminal VSV-G epitope tag and C-terminal polyhisti (human) (UniProt P04637). This is another data set of the same source.
Experiment [5] shares this target. The experiment can be described thus: fluorescence imaging of p53 positive against negative control blank beads.
For experiment [6] the target is unchanged. The experiment can be described thus: Bead-ELISA, chemiluminescence normalised to bead fluorescence; mass-tagged beads. (ELISA stands for enzyme-linked immunosorbent assay.)

“anti-HSV tag monoclonal antibody (EMD Biosciences)”: in experiment [1], the reduction of the binding capacity of the beads for p53 by the mass tag is 50%. For “fluorescently (Cy3) labeled anti-VSV-G tag antibody (Sigma-Aldrich)”, the signal-to-noise in experiment [2] is 25 :1. Moreover, the signal-to-noise ratio in experiment [3] is 10 :1; in experiment [4], 60 :1. “fluorescently labeled (Alexa Fluor 594) anti-p53 antibody, clone BP53-12 (Santa Cruz Biotechnology)”: the signal-to-noise ratio in experiment [5] is > 100 :1. Turning to “monoclonal anti-VSV-G horseradish peroxidase (HRP) conjugated antibody, Clone P5D4”, the signal-to-noise ratio in experiment [6] was 42 :1; in experiment [1], 82 :1.
